Legend:
Human IL-1β [1] = molecular target: T1, Human IL-1β (human, UniProt P01584 117-269); assay: cell-based or functional assay
Cyno IL-1β = Cyno IL-1β (cyno, UniProt P79182 117-268); assay: cell-based or functional assay
Human IL-1β [2] = molecular target: T1, Human IL-1β; assay: MSD-SET (solution equilibrium titration, electrochemiluminescence), 37° C., 72 h equilibrium
Description: MSD (Meso Scale Discovery) electrochemiluminescence assay is utilized to measure the affinity of Antibody I, Antibody II, and Canakinumab against human IL-1β. First, the equilibrium mixture of antibodies and human IL-1β is set up; in the mixture the antibody, concentrations are kept constant at 1 pM, 10 pM, and 100 pM whereas the ligand is titrated in the concentration ranging from 0.9 nM to 0.00004 nM (2.5 times dilution between concentrations) The equilibrium mixture is set up in sealed non-binding 96-well plate at 37° C. for 72 hours.
MSD Gold Streptavidin plates are used to detect the free antibodies in the equilibrium mixture. The MSD plates are first blocked with blocking buffer (PBS+1% BSA) for 1 hour on a shaker set at 800 rpm and then washed 3 times with washing buffer PBST (PBS ±0.05% Tween 20). The plates are coated with biotinylated human IL-1p followed by 3× washing with PBST. The equilibrium mixtures are added to the coated plate, incubated at room temperature with shaking for 2.5 mins and immediately washed 3× with PBST. The goat anti-human Sulfo-TAG antibody is added to the plate and incubated at room temperature for 1 hour with shaking. After three more washes, MSD Read Buffer at 1:2 concentration diluted in MilliQ water is added to the wells. immediately afterwards, the plates are read using an MSD Sector Imager 516000 instrument.

B1: Canakinumab (antibody, human IgG4 S228P, kappa, F234A L235A, V domains shown)
VH: QVQLVESGGGVVQPGRSLRLSCAASGFTFSVYGMNWVRQAPGKGLEWVAIIWYDGDNQYYADSVKGRFTISRDNSKNTLYLQMNGLRAEDTAVYYCARDLRTGPFDYWGQGTLVTVSS
VL: EIVLTQSPDFQSVTPKEKVTITCRASQSIGSSLHWYQQKPDQSPKLLIKYASQSFSGVPSRFSGSGSGTDFTLTINSLEAEDAAAYYCHQSSSLPFTFGPGTKVDIKR
In the case of B1, the “Human IL-1β Inhibition IC50 (HEK-Blue IL-1β reporter cells, 4 pM IL-1β)” value (Human IL-1β [1]) is reported as 29.2 pM, the “Cyno IL-1β Inhibition IC50 (HEK-Blue IL-1β reporter cells, 4 pM IL-1β)” value (Cyno IL-1β) is reported as greater than 10000 pM and the Kd (Human IL-1β [2]) is reported as 0.0131 nM.

Reference: patent US20230057665A1 (Eli Lilly, published 2023)
